The values that follow come from US20230263864A1, “THERAPEUTIC MICROBES” (Danmarks Tekniske Universitet, priority 2020, published 2023).

The nature of assay [1]: Oral gavage of engineered E. coli Nissle in mice, metabolites and body weight. It is filed as in vivo, mice (NMRI). Conditions: carbidopa 10 mg/kg IP every 24 h. As for the experimental part:
Female mice (NMRI, supplied by Taconic Biosciences, 6 weeks of age) were group-housed on a 12-h light:dark cycle at constant temperature with ad libitum access to food and water in a Specific Pathogen Free (SPF) facility. Upon delivery, mice were given 5 days to adjust to new location. Cohort size was 8 animals, and 4 different cohorts were tested, see below. All animals received Streptomycin (5 g/L) in the drinking water to ensure colonization, 3 days before being gavaged and throughout the experiment. A single oral gavage of 10^8 cells was administered of either L-DOPA-producing (called ‘EcN_DOPA’) or a control E. coli Nissle (‘EcN_CTRL’) strain without expression of the tyrosine hydroxylase gene. Samples were taken for the following 7 days, after which animals were euthanized and final blood samples and gut content samples were collected. […] Fresh fecal samples were collected daily for 7 days to quantify colonization and metabolite levels. […]
In vivo sample analysis: Plasma, tissue samples, gut content and fecal samples were analyzed for DOPA-derived and related serotonin metabolites using LC-MS. […] Gut and brain tissue was also frozen for real-time quantitative PCR (RT-qPCR) and metabolite analysis. Quantification of metabolites from in vivo samples was performed as described above (‘LC-MS analysis’).

In assay [2] the test system is E. faecalis. Nature of the assay: Bacteriocin assay (halos on BHI agar). The assay is classed as cell-based. As to conditions: overnight 37 C, FIG. 6C. As for the experimental part:
Three colonies of each E. coli Nissle strain were inoculated in 5 ml of BHI broth and grown overnight at 37° C. in a shaking incubator. The following day, 1 ml of the culture was washed with PBS buffer once and 10 μl were used to spot the strains on top of a BHI agar plate. After drying, top BHI agar was mixed with 500 μl of previously grown E. faecalis, and was placed on top of the BHI agar containing the dried spots of the E. coli strains. Plates were dried for 10 minutes and then incubated at 37° C. overnight.

Regarding `C[C@@](Cc1ccc(O)c(O)c1)(NN)C(=O)O` [carbidopa], the Plasma serotonin levels result in assay [1] (EcN_DOPA p=0.08) is given as “reduced”. In addition, the “Serotonin (5-HT) concentrations in urine” value in assay [1] (single oral gavage 10^8 cells, EcN_DOPA vs control strain p=0.06) was “decreased below detection level”.

B1: Enterocin A: bacteriocin (SEQ ID NO. 31) co-expressed by L-DOPA producing E. coli Nissle, pMUT-DOPA_5-EntA (protein)
chain: MKKTAIAIAVALAGFATVAQATTHSGKYYGNGVYCTKNKCTVDWAKATTCIAGMSIGGFLGGAIPGKC
modifications: Enterocin A
Take B1: in assay [2], the “inhibition of E. faecalis around EcN spots” value (“inhibition” for short) is reported as “halos of inhibition”.

B2: Hiracin JM79: bacteriocin (SEQ ID NO. 27) co-expressed by L-DOPA producing E. coli Nissle (protein)
chain: MKKTAIAIAVALAGFATVAQAATYYGNGLYCNKEKCWVDWNQAKGEIGKIIVNGWVNHGPWAPRR
modifications: Hiracin JM79
On to B2, for which the “inhibition” value in assay [2] is recorded as “halos of inhibition”.

B3: ubericin A: bacteriocin (SEQ ID NO. 29) co-expressed by L-DOPA producing E. coli Nissle (protein)
chain: MKKTAIAIAVALAGFATVAQAKTVNYGNGLYCNQKKCWVNWSETATTIVNNSIMNGLTGGNAGWHSGGRA
modifications: Ubericin A
As to B3, the “inhibition” value in assay [2] is “halos of inhibition”.
